Data on 18 molecules can be found in patent publication US12018066 (TRIAD NATIONAL SECURITY, dated 2024).

B1: D04 scFv (scFv)
scFv: SYVLTQPPSVSVAPGKTARITCGGNNIGWKSVHWYQQKPGQAPVLVVYNDNDRPSGVPERFSGSNSGNTATLTISRVVAGDEADYYCQVWDSSSDHVLFGGGTKLTVLSGGSTITSYNVYYTKLSSSGTQVQLVQSGAEVKKPGSSVKVSCKASGGTFSSYAISWVRQAPGQGLEWMGGIIPIFGTANYAQKFQGRVTITADESTSTAYMELSSLRSEDTAVYYCARASGRWLQFWHYYGMDVWGQGTTVTVS
B2: D07 scFv (scFv)
scFv: SYELTQPPSVSVAPGETARMTCGGNNIGTKGVHWYQQKPGQAPVLVVYDDSDRPSGIPERFSGSNAGNTATLTISRVEAGDEADYYCQVWDSRSDQYVFGTRTKLTVLSGGSTITSYNVYYTKLSSSGAQVTLKESGPVLVKPTETLTLTCTVSGFSLSNARMGVSWIRQPPGKALEWLAHIFSNGEKSYSTSLKSRLTISKDTSKSQVVLTMTNMDPVDTATYYCARTLDYYDSSGYLVGGAFDIWGQGTMVTVSS
B3: B04 scFv (scFv)
scFv: SYVLTQPPSVSVAPGKTARITCGGNNIGIRSVHWYQQKPGQAPVLVIYYDSDRPSGIPERFSGSKSGNTATLTISRVEAGDEADYYCQVWDSSSDHPVFGGGTKLTVLSGGSTITSYNVYYTKLSSSGTQVQLVESGAEVKKPGASVKVSCKASGYTFTRYYMHWVRQAPGQGLEWMGIINPSGGTTSYAQKFQGRVTMTRDTSTSTVYMELSSLRSEDTAVYYCARSFGELTSFDYWGQGTLVTVSS
B4: E01 scFv (scFv)
scFv: SYELTQPPSVSVAPGETARITCGGDNIGRRHVHWYQQKPGQAPVLVIYDDSDRPSGIPDRFSGSNSGNTATLTIGRVEAGDEADYYCQVWGSSNDPHVFGTGTKLTVLSGGSTITSNNVYYTKLSSSGTQVQLQQWGAGLLKPSETLSLKCAVYGGSFSGYYWGWIRQSTGKGLEWIGEINRSGSTNYNPSLKSRVTISVDTSKNQFSLKLSSVTAADTAVYYCARGGARYYYGSGSYRSTPRPYYFDYWGQGTLVTVSS
notes: also called E1
B5: F07 scFv (scFv)
scFv: SYVLTQPPSVSVAPGQTARITCGGNNIGSKSVHWYQQKPGQAPVLVVYDDSDRPSGIPERFSGSNSGNTATLIISRVEAGDEADYYCQVWDSSSVHYVFGTGTKLTVLSGGSTITSYNVYYTKLSSSGTQVQLVQSGAEVKKPGSSVRVSCKVSGYTFTGYYMHWVRQAPGQGLEWMGIINPSGGSTSYAQKFQGRVTMTRDTSTSTVYMELSSLRSEDTAVYYCARVRVGASDAFDIWGQGTMVTVSS
B6: H03 rabbit minibody (scFv-rabbit Fc) (Fc fusion)
scFv-Fc: SYELTQPPSVSVAPGQTARITCGGNNIGSKSVHWYQQKPGQAPVLVIYYDSDRPSGIPERFSGSNSGNTATLTISRVEAGDEADYYCQVWDSSSALYVFGTRTKVTVLSGGSTITSYNVYYTKLSSSGTQVQLVESGGGLVQPGRSLRLSCAASGFTFDDYAMHWVRQAPGKGLEWVSGISWNSGSIGYADSVKGRFTISRDNAKNSLYLQVNSLRAEDTAVYYCARELIVGTTSPQTDAFDIWGQGTMVTVSS
B7: D11 rabbit minibody (scFv-rabbit Fc) (Fc fusion)
scFv-Fc: SYELTQPPSVSVAPGQTARITCGGNNIGSKSVHWYQQKPGQAPVLVVYDDSDRPSGIPERFSGSNSGNTATLTISGTQAMDEADYYCQAWDSSTAYVFGSGTKLTVLSGGSTITSYNVYYTKLSSSGTQVQLEESGGGLVQPGGSLRLSCAASGFTFSNYAMSWVRQAPGKGLEWVSAISGSGGATFHADSVKGRFTISRDNSKNTLYLQMNSLRAEDTAVYYCARRVGYDSSGYYWSDAFDIWGQGTMVTVSS
B8: H02 rabbit minibody (scFv-rabbit Fc) (Fc fusion)
scFv-Fc: QSVVTQPPSVSAAPGQKVTISCSGSSSNIGNNYVSWYQQLPGTAPKLLIYRDTQRPSGVPDRFSGSKSGTSASLAISGLRSEDEADYYCATWDKSLSGPVFGGGTKVTVLSGGSTITSYNVYYTKLSSSGTQVQLQQSGPGLVKPSQTLSLTCAISGDSVSSNSAAWNWIRQSPSRGLEWLGRTYYRSKWYNDYAVSVKSRIIINPDTSKNQFSLQLNSVTPEDTAVYYCARQDNNPYYGLDVWGQGTTVTVSS
B9: G07 rabbit minibody (scFv-rabbit Fc) (Fc fusion)
scFv-Fc: QSVLIQPPSASGTPGQRVTISCSGSNSNFGSNSVSWYQQRPGTAPKLLIEGNNQRPSGVPERFSGSKSGTSASLAISGLQSEDEAEYSCASWDDSLNAFVFGPGTKLTVLSGGSAITSYNVYYTKLSSSGTQVQLVQSGAEVKKPGESLKISCKGSGYSFTSYWIGWVRQMPGKGLEWMGIIYPGDSDIRYSPSFQGQVTISADKSFSSAYLQWSSLKASDTAMYYCARLGATGAFDIWGQGTTVTVSS
B10: R26 rabbit minibody (scFv-rabbit Fc) (Fc fusion)
scFv-Fc: SYELTQPPSVSVAPGQTATITCGGKNIESKSVHWYQQKPGQAPVLVVSDDTDRASGIPERFSGSNSGGAATLTISRVEAGDEADYYCQVWDSPSDHYVFGPGTKLTVLSGGSTITSYNVYYTKLSSSGTQVQLVESGGGVVQPGRSLRLSCAASGFTFSSYAMHWVRQAPGKGLEWVAVISYDGSNKYYADSVKGRFTISRDKAKNTLYLQMNSLRGEDTAVYYCARELSYYDSSGYLRGDWYFDLWGRGTLVTVSS
B11: H05 rabbit minibody (scFv-rabbit Fc) (Fc fusion)
scFv-Fc: SYVLTQPPSVSVAPGQTARITCGANNIGRISVHWYQQKPGQAPVLVVYDDSDRPSGIPERFSGSNFGNTATLTISRVEAGDEADYYCQVWDSYSDHVIFGGGTKLTVLSGGSTITSYNVYYTKLSSSGTQVQLVQSGAEVKKPGSSVKVSCKASGGTFSSYAISWVRQAPGQGLEWMGGIIPIFGTANYAQKFQGRVTITADESTSTAYMELSSLRSEDTAVYYCARSIFGVVIISHADGYYYGMDVWGQGTTVTVSS
B12: R09 scFv (scFv)
scFv: QPGLTQPPSVSVSPGQTASITCSGDKLGYKYVSWYQQKPGQSPVLVIYEDTKRPSGIPKRFSGSNSGNTATLTICGTQAVDEADYYCQAWDSSVVFGGGTKLTVLSGGSTITSYNVYDTKLSSSGTQVQLVQSGAEVKKPGASVKVSCKASGYTFTSYGISWVRQAPGQGLEWMGWISAYNGNTNYAQKFQGRVTMTTDTSTSTAYMELRSLRSDDTAVYYCARDMELRPPFDYWGQGTLVTVSS
B13: E07 scFv (scFv)
scFv: B5 scFv
B14: E01 rabbit minibody (scFv-rabbit Fc) (Fc fusion)
scFv-Fc: B4 scFv
B15: S01 rabbit minibody (scFv-rabbit Fc) (Fc fusion)
chain: EIVMTQSPSSLSASVGDSVTITCQASQDISNYLNWYQQKPGKAPKLLIYDASNLETGVPSRFSGGGSGTDFTLTITSLQPEDIATYYCQQYDNFPPTFGPGTKVDIKSGGSTITSYNVYYTKLSSSDTQVQLVESGGGLVKPGGSLRLSCAASGFTVGSNYMSWVRQAPGKGLEWVSVIYSGGSTYYADSVKGRFTISRDNSKNTLYLQMNSLRAEDTAVYYCARGSSGAWYFDLWGRGTLVTVSS
B16: S01 human minibody (scFv-human Fc) (Fc fusion)
chain: B15 chain
B17: F07 rabbit minibody (scFv-rabbit Fc) (Fc fusion)
chain: B5 scFv
B18: F07 human minibody (scFv-human Fc) (Fc fusion)
chain: B5 scFv

Where “and” joins values, the source holds several entries; their conditions need not be identical. Equal entries are not always repeated.

One test has as its target T1, SARS-CoV-2 spike protein receptor binding domain (RBD2) (SARS-CoV-2, UniProt P0DTC2 319-537).
Assay: not given
One may read the Kd as the constant that tells how readily two partners part at equilibrium. Read a high Kd as lower affinity. In turn, B1 had a Kd of 33 nM. On the same count and under the same terms, the same measure for B2: 113 nM and 138 nM; for B3: 13.9 nM.

The next test has as its target T1, SARS-CoV-2 spike protein receptor ….
Assay: not given
This is another data set of the same source.
Consider B4, for which the Kd was 13.9 nM. The molecule B5 registered a Kd of 67.5 nM.

Another test addresses T2, SARS-CoV spike protein receptor binding domain (RBD1) (SARS-CoV, UniProt P59594 306-527). The test is described as follows: ELISA, crude rabbit minibody. On the technique in general: ELISA stands for enzyme-linked immunosorbent assay.
Turning to B6, the binding result is “no binding”.

For B7, the binding result was “no binding”.

As for B8, the binding result is “no binding”.

For the molecule B9, the binding result is given as “no binding”. The same measure, in the same setting: for B10 the value was “no binding”. The same measure, in the same setting: the same measure for B11: “no binding”.

A further test addresses T1, SARS-CoV-2 spike protein receptor …. The test is described as follows: flow cytometry, yeast-expressed scFv.
B4 returned a Kd of 16.1 nM. This counts as double-digit nanomolar. Still for that read-out and setting: for B12 the value was 4820 nM; for B5, 280 nM; for B13, 436 nM. Same read-out and setting: the same measure for B2: 268 nM.

The target is the same in the next test. Nature of the test: flow cytometry, yeast-displayed scFv. In general terms: A flow cytometer gives signals particle by particle.
The molecule B4 displayed a Kd of 13.9 nM.

As for B5, the Kd amounted to 67.5 nM. On the same count and under the same terms, the same measure for B3: 13.9 nM.

Another test shares this target. The test is described as follows: flow cytometry, yeast-displayed scFv, titration of biotinylated antigen.
Molecule B1 showed a Kd of 33 nM. Molecule B4 returned a Kd of 13.9 nM. Still for that read-out and setting: for B5 the value was 67.5 nM; for B2, 113 nM. Still for that read-out and setting: for B3 the value was 13.9 nM.

The target in the next test is T2, SARS-CoV spike protein receptor binding …. Nature of the test: plate immunoassay on immobilized antigen, PE-labelled anti-rabbit/anti-human.
In the case of B14, the binding result is “no binding”. The same measure, in the same setting: the same measure for B15: “no binding”; for B16: “no binding”. On to B17, for which the binding result was “no binding”. As to B18, the binding result is reported as “no binding”.
